Data on one molecule can be found in US20250011734A1, “DGAT1/2-INDEPENDENT ENZYME SYNTHESIZING STORAGE LIPIDS (DIESL)” (STICHTING HET NEDERLANDS KANKER INSTITUUT-ANTONI VAN …, priority 2021, published 2025).

For assay [1], the system named is HAP1 4KO cells (ΔDGAT1ΔDGAT2ΔDIESLΔTMX1). Nature of the assay: Shotgun lipidomics of HAP1 4KO cells reconstituted with WT or H130A DIESL. In kind it is cell-based, human. Conditions: HAP1 4KO cells expressing active (WT) or catalytic-inactive (H130A) DIESL; FIG. 4B. Here is the method: HAP1 4KO (ΔDGAT1ΔDGAT2ΔDIESLΔTMX1) cells, reconstituted with WT or H130A DIESL, were cultured in complete medium. Prior to collection, cells were cultured in serum-free IMDM for thirty minutes. Cells were then collected by trypsinization, washed twice with PBS and three million cells (in triplicate) were pelleted and stored at −80° C. For E. coli samples, 2 ml of induced culture (as described above, in triplicate) was pelleted and incubated overnight at −80° C. The following day, bacterial pellets were thawed and incubated in 25 μg/ml lysozyme in PBS for 30 minutes. Cells were pelleted, washed in PBS, and then pelleted again before resuspension in distilled water. Cells were sonicated at 60% amplitude for 5 minutes, in continuous 5-second on/25-second off cycles. The insoluble fraction was pelleted by centrifugation and the lysate (supernatant) was quantified for protein and stored at −80° C. […]
Samples were analyzed by direct infusion on a QExactive mass spectrometer (Thermo Scientific) equipped with a TriVersa NanoMate ion source (Advion Biosciences). Samples were analyzed in both positive and negative ion modes with a resolution of Rm/z=200=280000 for MS and Rm/z=200=17500 for MSMS experiments, in a single acquisition. […]
Data were analyzed by Lipotype GmbH with in-house developed lipid identification software based on LipidXplorer (41, 42). […]

The test system of a further assay is E. coli. In words: Recombinant expression of DIESL in E. coli, TAG by TLC and mass spectrometry. Conditions: human DIESL preceded by a bacterial membrane targeting sequence, FIG. 4F. In kind it is cell-based. On the procedure:
E. coli BL21 were transformed with pET24 or pET28a plasmids expressing the indicated construct. Single clones were cultured up to a 5 ml volume in LB broth at OD 0.5 at 37° C. Cultures were then transferred to 25° C. for one hour, and then expression was induced with 0.2 mM IPTG for 16h. For SDS-PAGE and immunoblot analysis, 100 ul of culture was pelleted for 5 minutes at 3,500 g before lysis in SDS-PAGE sample buffer.
Equivalent numbers of human cells grown to confluence in 6-well plates were first washed with PBS. Cells were then incubated twice in 400 μl extraction buffer (3:2 hexane:isopropanol) for 10 minutes (35). E. coli cell pellets from 2 ml of overnight culture were incubated in 500 μl extraction buffer (only once) for 30 minutes while rotating. Extractions were pooled and dried under nitrogen stream, to a volume of ˜10 μl, and then spotted on silica gel 60 TLC plates (Sigma-Aldrich). Plates were placed in a TLC tank containing a mobile phase to separate neutral lipids (80:20:1 hexane:diethyl ether:acetic acid) or polar lipids (60:50:4:1 chloroform:methanol:water:acetic acid). […] After drying, NBD fluorescence was monitored on a Universal Hood GelDoc system (Bio-Rad) using the fluorescein channel. […] (shaking at 850 rpm) for the indicated time (final [14C] DAG concentration, 50 μM; total radioactivity per assay, 0.14 μCi). […]

B1: active DIESL: DIESL polypeptide (human transmembrane protein 68, SEQ ID NO: 1) with triacylglycerol synthase activity (protein, listed as Homo sapiens)
chain: MIDKNQTCGVGQDSVPYMICLIHILEEWFGVEQLEDYLNFANYLLWVFTPLILLILPYFTIFLLYLTIIFLHIYKRKNVLKEAYSHNLWDGARKTVATLWDGHAAVWHGYEVHGMEKIPEDGPALIIFYHGAIPIDFYYFMAKIFIHKGRTCRVVADHFVFKIPGFSLLLDVFCALHGPREKCVEILRSGHLLAISPGGVREALISDETYNIVWGHRRGFAQVAIDAKVPIIPMFTQNIREGFRSLGGTRLFRWLYEKFRYPFAPMYGGFPVKLRTYLGDPIPYDPQITAEELAEKTKNAVQALIDKHQRIPGNIMSALLERFH
Take B1: the “TAG abundance as share of the lipidome” value in assay [1] is 20.5 % of the lipidome. For the same molecule, the “TAG synthesis in E. coli” value in the assay with E. coli is listed as “induced de novo TAG synthesis”.
